Assay results published in patent US20140087995A1 (published 2014).
Blank lines part the entries; values can stand above or below the binder they belong to. Numbered stars: 1 amine (or outer) side, 2 acyl side, 3 side chain; on linkers, the order of the positions; unused ones are H or OH. Bridge positions count the residues as written; N and C are the ends. Side chains are listed from the residue outwards. Ends that are not written are not given here. * marks the point of attachment. C20 diacid = O=C(O)CCCCCCCCCCCCCCCCCCC(=O)*; γGlu = O=C(O)[C@H](CCC(=O)[*:2])N[*:1]

Molecular target: T1, human calcitonin receptor (human, UniProt P30988 25-474)
T1 sequence (looked up): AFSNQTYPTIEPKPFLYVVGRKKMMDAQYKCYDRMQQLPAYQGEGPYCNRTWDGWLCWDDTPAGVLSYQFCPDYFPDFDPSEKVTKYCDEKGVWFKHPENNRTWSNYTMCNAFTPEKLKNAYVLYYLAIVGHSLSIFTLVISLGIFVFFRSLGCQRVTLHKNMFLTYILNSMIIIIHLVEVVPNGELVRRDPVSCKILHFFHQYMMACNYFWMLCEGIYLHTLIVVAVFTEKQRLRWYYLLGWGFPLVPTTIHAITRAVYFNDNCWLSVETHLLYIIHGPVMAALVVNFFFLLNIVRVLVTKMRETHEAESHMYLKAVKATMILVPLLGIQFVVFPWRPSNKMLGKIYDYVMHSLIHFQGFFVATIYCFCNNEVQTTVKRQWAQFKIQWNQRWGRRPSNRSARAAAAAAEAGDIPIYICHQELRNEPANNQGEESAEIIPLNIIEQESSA
Test: cell-based or functional assay

B1: N^ε1-[(4S)-4-carboxy-4-[[(4S)-4-carboxy-4-(19-carboxynonadecanoylamino)butanoyl]amino]butanoyl]-[Glu14,Arg17,Pro21,Pro27,Arg34,Glu35]-h-amylin (peptide)
peptide: K([γGlu-γGlu-C20 diacid])CNTATCATQRLAEFLRHSSPNFGAIPSSTNVGRETY-NH2
modifications: disulfide 2-7; N-terminus assumed
SMILES: CC[C@H](C)[C@H](NC(=O)[C@H](C)NC(=O)CNC(=O)[C@H](Cc1ccccc1)NC(=O)[C@H](CC(N)=O)NC(=O)[C@@H]1CCCN1C(=O)[C@H](CO)NC(=O)[C@H](CO)NC(=O)[C@H](Cc1c[nH]cn1)NC(=O)[C@H](CCCNC(=N)N)NC(=O)[C@H](CC(C)C)NC(=O)[C@H](Cc1ccccc1)NC(=O)[C@H](CCC(=O)O)NC(=O)[C@H](C)NC(=O)[C@H](CC(C)C)NC(=O)[C@H](CCCNC(=N)N)NC(=O)[C@H](CCC(N)=O)NC(=O)[C@@H](NC(=O)[C@H](C)NC(=O)[C@@H]1CSSC[C@H](NC(=O)[C@@H](N)CCCCNC(=O)CC[C@H](NC(=O)CC[C@H](NC(=O)CCCCCCCCCCCCCCCCCCC(=O)O)C(=O)O)C(=O)O)C(=O)N[C@@H](CC(N)=O)C(=O)N[C@@H]([C@@H](C)O)C(=O)N[C@@H](C)C(=O)N[C@@H]([C@@H](C)O)C(=O)N1)[C@@H](C)O)C(=O)N1CCC[C@H]1C(=O)N[C@@H](CO)C(=O)N[C@@H](CO)C(=O)N[C@H](C(=O)N[C@@H](CC(N)=O)C(=O)N[C@H](C(=O)NCC(=O)N[C@@H](CCCNC(=N)N)C(=O)N[C@@H](CCC(=O)O)C(=O)N[C@H](C(=O)N[C@@H](Cc1ccc(O)cc1)C(N)=O)[C@@H](C)O)C(C)C)[C@@H](C)O
notes: synthetic peptide amide
hCTR funct. EC50 (pM): 7430 pM

B4: N^ε1-[(4S)-4-carboxy-4-[[(4S)-4-carboxy-4-(19-carboxynonadecanoylamino)butanoyl]amino]butanoyl]-[Glu14,Arg17,Pro21,Pro27,His34,Glu35]-h-amylin (peptide)
peptide: K([γGlu-γGlu-C20 diacid])CNTATCATQRLAEFLRHSSPNFGAIPSSTNVGHETY-NH2
modifications: disulfide 2-7; N-terminus assumed
SMILES: CC[C@H](C)[C@H](NC(=O)[C@H](C)NC(=O)CNC(=O)[C@H](Cc1ccccc1)NC(=O)[C@H](CC(N)=O)NC(=O)[C@@H]1CCCN1C(=O)[C@H](CO)NC(=O)[C@H](CO)NC(=O)[C@H](Cc1c[nH]cn1)NC(=O)[C@H](CCCNC(=N)N)NC(=O)[C@H](CC(C)C)NC(=O)[C@H](Cc1ccccc1)NC(=O)[C@H](CCC(=O)O)NC(=O)[C@H](C)NC(=O)[C@H](CC(C)C)NC(=O)[C@H](CCCNC(=N)N)NC(=O)[C@H](CCC(N)=O)NC(=O)[C@@H](NC(=O)[C@H](C)NC(=O)[C@@H]1CSSC[C@H](NC(=O)[C@@H](N)CCCCNC(=O)CC[C@H](NC(=O)CC[C@H](NC(=O)CCCCCCCCCCCCCCCCCCC(=O)O)C(=O)O)C(=O)O)C(=O)N[C@@H](CC(N)=O)C(=O)N[C@@H]([C@@H](C)O)C(=O)N[C@@H](C)C(=O)N[C@@H]([C@@H](C)O)C(=O)N1)[C@@H](C)O)C(=O)N1CCC[C@H]1C(=O)N[C@@H](CO)C(=O)N[C@@H](CO)C(=O)N[C@H](C(=O)N[C@@H](CC(N)=O)C(=O)N[C@H](C(=O)NCC(=O)N[C@@H](Cc1c[nH]cn1)C(=O)N[C@@H](CCC(=O)O)C(=O)N[C@H](C(=O)N[C@@H](Cc1ccc(O)cc1)C(N)=O)[C@@H](C)O)C(C)C)[C@@H](C)O
notes: synthetic peptide amide
hCTR funct. EC50 (pM): 7050 pM

B7: N^ε1-[(4S)-4-carboxy-4-[[(4S)-4-carboxy-4-(19-carboxynonadecanoylamino)butanoyl]amino]butanoyl]-[Glu14,Arg17,Pro21,Pro27,Pro34,His35]-h-amylin (peptide)
peptide: K([γGlu-γGlu-C20 diacid])CNTATCATQRLAEFLRHSSPNFGAIPSSTNVGPHTY-NH2
modifications: disulfide 2-7 (inferred)
notes: synthetic peptide amide
hCTR funct. EC50 (pM): 2830 pM

B8: N^ε1-[(4S)-4-carboxy-4-[[(4S)-4-carboxy-4-(19-carboxynonadecanoylamino)butanoyl]amino]butanoyl]-[Glu14,Arg17,Pro21,Pro27,Pro34,Arg35]-h-amylin (peptide)
peptide: K([γGlu-γGlu-C20 diacid])CNTATCATQRLAEFLRHSSPNFGAIPSSTNVGPRTY-NH2
modifications: disulfide 2-7; N-terminus assumed
SMILES: CC[C@H](C)[C@H](NC(=O)[C@H](C)NC(=O)CNC(=O)[C@H](Cc1ccccc1)NC(=O)[C@H](CC(N)=O)NC(=O)[C@@H]1CCCN1C(=O)[C@H](CO)NC(=O)[C@H](CO)NC(=O)[C@H](Cc1c[nH]cn1)NC(=O)[C@H](CCCNC(=N)N)NC(=O)[C@H](CC(C)C)NC(=O)[C@H](Cc1ccccc1)NC(=O)[C@H](CCC(=O)O)NC(=O)[C@H](C)NC(=O)[C@H](CC(C)C)NC(=O)[C@H](CCCNC(=N)N)NC(=O)[C@H](CCC(N)=O)NC(=O)[C@@H](NC(=O)[C@H](C)NC(=O)[C@@H]1CSSC[C@H](NC(=O)[C@@H](N)CCCCNC(=O)CC[C@H](NC(=O)CC[C@H](NC(=O)CCCCCCCCCCCCCCCCCCC(=O)O)C(=O)O)C(=O)O)C(=O)N[C@@H](CC(N)=O)C(=O)N[C@@H]([C@@H](C)O)C(=O)N[C@@H](C)C(=O)N[C@@H]([C@@H](C)O)C(=O)N1)[C@@H](C)O)C(=O)N1CCC[C@H]1C(=O)N[C@@H](CO)C(=O)N[C@@H](CO)C(=O)N[C@H](C(=O)N[C@@H](CC(N)=O)C(=O)N[C@H](C(=O)NCC(=O)N1CCC[C@H]1C(=O)N[C@@H](CCCNC(=N)N)C(=O)N[C@H](C(=O)N[C@@H](Cc1ccc(O)cc1)C(N)=O)[C@@H](C)O)C(C)C)[C@@H](C)O
notes: synthetic peptide amide; also called compound 110
hCTR funct. EC50 (pM): 8160 pM

Other lines, results leading:

hCTR funct. EC50 (pM): 887 pM
B2: N^ε1-[(4S)-4-carboxy-4-[[(4S)-4-carboxy-4-(19-carboxynonadecanoylamino)butanoyl]amino]butanoyl]-[Ser14,Arg17,Pro21,Pro27,Pro34,Glu35]-h-amylin (peptide)
peptide: K([γGlu-γGlu-C20 diacid])CNTATCATQRLASFLRHSSPNFGAIPSSTNVGPETY-NH2
modifications: disulfide 2-7; N-terminus assumed
SMILES: CC[C@H](C)[C@H](NC(=O)[C@H](C)NC(=O)CNC(=O)[C@H](Cc1ccccc1)NC(=O)[C@H](CC(N)=O)NC(=O)[C@@H]1CCCN1C(=O)[C@H](CO)NC(=O)[C@H](CO)NC(=O)[C@H](Cc1c[nH]cn1)NC(=O)[C@H](CCCNC(=N)N)NC(=O)[C@H](CC(C)C)NC(=O)[C@H](Cc1ccccc1)NC(=O)[C@H](CO)NC(=O)[C@H](C)NC(=O)[C@H](CC(C)C)NC(=O)[C@H](CCCNC(=N)N)NC(=O)[C@H](CCC(N)=O)NC(=O)[C@@H](NC(=O)[C@H](C)NC(=O)[C@@H]1CSSC[C@H](NC(=O)[C@@H](N)CCCCNC(=O)CC[C@H](NC(=O)CC[C@H](NC(=O)CCCCCCCCCCCCCCCCCCC(=O)O)C(=O)O)C(=O)O)C(=O)N[C@@H](CC(N)=O)C(=O)N[C@@H]([C@@H](C)O)C(=O)N[C@@H](C)C(=O)N[C@@H]([C@@H](C)O)C(=O)N1)[C@@H](C)O)C(=O)N1CCC[C@H]1C(=O)N[C@@H](CO)C(=O)N[C@@H](CO)C(=O)N[C@H](C(=O)N[C@@H](CC(N)=O)C(=O)N[C@H](C(=O)NCC(=O)N1CCC[C@H]1C(=O)N[C@@H](CCC(=O)O)C(=O)N[C@H](C(=O)N[C@@H](Cc1ccc(O)cc1)C(N)=O)[C@@H](C)O)C(C)C)[C@@H](C)O
notes: synthetic peptide amide; also called compound 120

hCTR funct. EC50 (pM): 2140 pM
B3: N^ε1-[(4S)-4-carboxy-4-[[(4S)-4-carboxy-4-(19-carboxynonadecanoylamino)butanoyl]amino]butanoyl]-[Glu14,Arg17,Pro21,Pro27,Pro34,Phe37]-h-amylin (peptide)
peptide: K([γGlu-γGlu-C20 diacid])CNTATCATQRLAEFLRHSSPNFGAIPSSTNVGPNTF-NH2
modifications: disulfide 2-7; N-terminus assumed
SMILES: CC[C@H](C)[C@H](NC(=O)[C@H](C)NC(=O)CNC(=O)[C@H](Cc1ccccc1)NC(=O)[C@H](CC(N)=O)NC(=O)[C@@H]1CCCN1C(=O)[C@H](CO)NC(=O)[C@H](CO)NC(=O)[C@H](Cc1c[nH]cn1)NC(=O)[C@H](CCCNC(=N)N)NC(=O)[C@H](CC(C)C)NC(=O)[C@H](Cc1ccccc1)NC(=O)[C@H](CCC(=O)O)NC(=O)[C@H](C)NC(=O)[C@H](CC(C)C)NC(=O)[C@H](CCCNC(=N)N)NC(=O)[C@H](CCC(N)=O)NC(=O)[C@@H](NC(=O)[C@H](C)NC(=O)[C@@H]1CSSC[C@H](NC(=O)[C@@H](N)CCCCNC(=O)CC[C@H](NC(=O)CC[C@H](NC(=O)CCCCCCCCCCCCCCCCCCC(=O)O)C(=O)O)C(=O)O)C(=O)N[C@@H](CC(N)=O)C(=O)N[C@@H]([C@@H](C)O)C(=O)N[C@@H](C)C(=O)N[C@@H]([C@@H](C)O)C(=O)N1)[C@@H](C)O)C(=O)N1CCC[C@H]1C(=O)N[C@@H](CO)C(=O)N[C@@H](CO)C(=O)N[C@H](C(=O)N[C@@H](CC(N)=O)C(=O)N[C@H](C(=O)NCC(=O)N1CCC[C@H]1C(=O)N[C@@H](CC(N)=O)C(=O)N[C@H](C(=O)N[C@@H](Cc1ccccc1)C(N)=O)[C@@H](C)O)C(C)C)[C@@H](C)O
notes: synthetic peptide amide

hCTR funct. EC50 (pM): 1280 pM
B5: N^ε1-[(4S)-4-carboxy-4-[[(4S)-4-carboxy-4-(19-carboxynonadecanoylamino)butanoyl]amino]butanoyl]-[Glu14,Arg17,Pro21,Pro31,Pro34,Glu35]-h-amylin (peptide)
peptide: K([γGlu-γGlu-C20 diacid])CNTATCATQRLAEFLRHSSPNFGAILSSTPVGPETY-NH2
modifications: disulfide 2-7
notes: synthetic peptide amide

hCTR funct. EC50 (pM): 89600 pM
B6: N^ε1-[(4S)-4-carboxy-4-[[(4S)-4-carboxy-4-(19-carboxynonadecanoylamino)butanoyl]amino]butanoyl]-[Glu14,Arg17,Pro23,Pro34,Glu35]-h-amylin (peptide)
peptide: K([γGlu-γGlu-C20 diacid])CNTATCATQRLAEFLRHSSNNPGAILSSTNVGPETY-NH2
modifications: disulfide 2-7; N-terminus assumed
SMILES: CC[C@H](C)[C@H](NC(=O)[C@H](C)NC(=O)CNC(=O)[C@@H]1CCCN1C(=O)[C@H](CC(N)=O)NC(=O)[C@H](CC(N)=O)NC(=O)[C@H](CO)NC(=O)[C@H](CO)NC(=O)[C@H](Cc1c[nH]cn1)NC(=O)[C@H](CCCNC(=N)N)NC(=O)[C@H](CC(C)C)NC(=O)[C@H](Cc1ccccc1)NC(=O)[C@H](CCC(=O)O)NC(=O)[C@H](C)NC(=O)[C@H](CC(C)C)NC(=O)[C@H](CCCNC(=N)N)NC(=O)[C@H](CCC(N)=O)NC(=O)[C@@H](NC(=O)[C@H](C)NC(=O)[C@@H]1CSSC[C@H](NC(=O)[C@@H](N)CCCCNC(=O)CC[C@H](NC(=O)CC[C@H](NC(=O)CCCCCCCCCCCCCCCCCCC(=O)O)C(=O)O)C(=O)O)C(=O)N[C@@H](CC(N)=O)C(=O)N[C@@H]([C@@H](C)O)C(=O)N[C@@H](C)C(=O)N[C@@H]([C@@H](C)O)C(=O)N1)[C@@H](C)O)C(=O)N[C@@H](CC(C)C)C(=O)N[C@@H](CO)C(=O)N[C@@H](CO)C(=O)N[C@H](C(=O)N[C@@H](CC(N)=O)C(=O)N[C@H](C(=O)NCC(=O)N1CCC[C@H]1C(=O)N[C@@H](CCC(=O)O)C(=O)N[C@H](C(=O)N[C@@H](Cc1ccc(O)cc1)C(N)=O)[C@@H](C)O)C(C)C)[C@@H](C)O
notes: synthetic peptide amide
